Results published in patent US12427210B2, “Compounds comprising a fibroblast activation protein ligand and use thereof” (priority 2019, dated 2025).

How the values were obtained:
[1] = target: Matrix metalloprotease 9 (mutant Q279R) (Homo sapiens (Human)) (UniProt P14780)
[2] = target: T1, Renin (Homo sapiens (Human)) (UniProt P00797)
T1 sequence: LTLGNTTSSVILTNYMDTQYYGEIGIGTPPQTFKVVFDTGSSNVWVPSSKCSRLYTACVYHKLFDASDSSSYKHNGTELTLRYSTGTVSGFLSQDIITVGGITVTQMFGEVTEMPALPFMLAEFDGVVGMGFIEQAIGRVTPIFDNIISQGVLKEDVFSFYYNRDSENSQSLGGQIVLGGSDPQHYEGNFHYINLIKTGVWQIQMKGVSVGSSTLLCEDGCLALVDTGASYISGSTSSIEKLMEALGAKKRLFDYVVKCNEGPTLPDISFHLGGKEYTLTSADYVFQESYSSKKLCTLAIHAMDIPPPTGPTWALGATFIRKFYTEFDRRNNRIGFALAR

[3] = target: FAP (enzyme of the specificity protease screening) (Homo sapiens (Human)) (UniProt Q12884)
Sequence of FAP (enzyme of the specificity protease screening) (Homo sapiens (Human)) (Q12884 26-760 limits assumed): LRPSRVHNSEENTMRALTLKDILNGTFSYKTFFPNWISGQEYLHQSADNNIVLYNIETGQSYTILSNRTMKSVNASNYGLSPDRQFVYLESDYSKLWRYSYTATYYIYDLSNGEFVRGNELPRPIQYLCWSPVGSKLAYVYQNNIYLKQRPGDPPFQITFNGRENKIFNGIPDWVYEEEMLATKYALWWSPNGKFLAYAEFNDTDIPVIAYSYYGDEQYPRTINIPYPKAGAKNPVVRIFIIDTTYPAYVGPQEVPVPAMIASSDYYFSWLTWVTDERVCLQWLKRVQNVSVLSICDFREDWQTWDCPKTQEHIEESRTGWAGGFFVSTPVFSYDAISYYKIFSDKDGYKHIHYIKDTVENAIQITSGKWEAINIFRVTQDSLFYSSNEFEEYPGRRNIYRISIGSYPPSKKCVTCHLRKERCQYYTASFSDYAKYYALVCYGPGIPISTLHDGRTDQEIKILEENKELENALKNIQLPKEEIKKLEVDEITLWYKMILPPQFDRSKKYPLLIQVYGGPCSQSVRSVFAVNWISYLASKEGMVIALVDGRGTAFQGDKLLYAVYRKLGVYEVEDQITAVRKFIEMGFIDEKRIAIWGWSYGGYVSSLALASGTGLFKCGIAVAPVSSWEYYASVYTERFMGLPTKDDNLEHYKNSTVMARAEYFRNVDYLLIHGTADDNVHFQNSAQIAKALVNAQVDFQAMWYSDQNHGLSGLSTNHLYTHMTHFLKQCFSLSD

[4] = target: Ubiquitin carboxyl-terminal hydrolase 7 (Homo sapiens (Human)) (UniProt Q93009)
[5] = target: T2, Ubiquitin carboxyl-terminal hydrolase 2 (Homo sapiens (Human)) (UniProt O75604)
T2 sequence: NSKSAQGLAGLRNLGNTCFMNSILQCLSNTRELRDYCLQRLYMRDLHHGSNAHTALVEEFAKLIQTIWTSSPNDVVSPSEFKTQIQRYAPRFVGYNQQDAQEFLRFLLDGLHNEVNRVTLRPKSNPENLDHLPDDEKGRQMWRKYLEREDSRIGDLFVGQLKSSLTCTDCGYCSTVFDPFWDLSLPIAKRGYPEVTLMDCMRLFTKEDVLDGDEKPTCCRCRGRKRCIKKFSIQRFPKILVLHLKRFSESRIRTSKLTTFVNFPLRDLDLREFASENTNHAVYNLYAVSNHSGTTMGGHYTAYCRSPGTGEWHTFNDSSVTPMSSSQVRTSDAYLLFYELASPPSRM

[6] = target: serine protease NS3 (a.a. 3-181) from Hepatitis C virus genotype 1b (mutant R155K) (Hepatitis C virus genotype 1b)
[7] = target: T3, A20 (Homo sapiens (Human)) (UniProt P21580)
T3 sequence: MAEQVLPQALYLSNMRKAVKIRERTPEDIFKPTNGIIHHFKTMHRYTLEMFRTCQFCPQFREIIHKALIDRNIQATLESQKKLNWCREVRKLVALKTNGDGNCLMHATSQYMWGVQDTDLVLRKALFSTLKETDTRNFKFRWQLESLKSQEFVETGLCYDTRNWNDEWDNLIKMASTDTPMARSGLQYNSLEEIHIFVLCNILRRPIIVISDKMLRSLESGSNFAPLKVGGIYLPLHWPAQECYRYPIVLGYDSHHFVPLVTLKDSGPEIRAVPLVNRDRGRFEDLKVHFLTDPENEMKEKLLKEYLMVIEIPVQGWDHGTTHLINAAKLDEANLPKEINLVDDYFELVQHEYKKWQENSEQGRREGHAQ

[8] = target: Ataxin3 (Homo sapiens (Human)) (UniProt P54252)
Sequence of Ataxin3 (Homo sapiens (Human)) (P54252 whole entry): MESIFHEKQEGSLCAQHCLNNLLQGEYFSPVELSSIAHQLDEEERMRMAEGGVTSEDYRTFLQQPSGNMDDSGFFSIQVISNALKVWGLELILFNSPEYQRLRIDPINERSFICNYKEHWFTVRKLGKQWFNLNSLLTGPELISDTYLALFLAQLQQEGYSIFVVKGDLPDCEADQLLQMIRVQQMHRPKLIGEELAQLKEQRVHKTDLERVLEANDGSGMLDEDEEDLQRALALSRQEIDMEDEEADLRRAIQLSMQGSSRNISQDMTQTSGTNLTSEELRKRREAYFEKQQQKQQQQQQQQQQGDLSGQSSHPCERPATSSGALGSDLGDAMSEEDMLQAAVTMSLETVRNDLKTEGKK

[9] = target: serine protease NS3 (a.a. 3-181) from Hepatitis C virus genotype 1a (mutant D168V) (Hepatitis C virus genotype 1a)
[10] = target: Caspase-8 (Homo sapiens (Human)) (UniProt Q14790)
Sequence of Caspase-8 (Homo sapiens (Human)) (Q14790 217-479 limits assumed): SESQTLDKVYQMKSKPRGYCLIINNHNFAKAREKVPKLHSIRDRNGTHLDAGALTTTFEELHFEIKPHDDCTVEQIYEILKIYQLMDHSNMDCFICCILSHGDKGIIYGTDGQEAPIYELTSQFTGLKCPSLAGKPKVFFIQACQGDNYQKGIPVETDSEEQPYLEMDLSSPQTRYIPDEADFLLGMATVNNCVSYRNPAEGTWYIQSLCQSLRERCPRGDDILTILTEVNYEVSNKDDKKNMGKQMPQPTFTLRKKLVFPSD

[11] = target: Cathepsin L (Homo sapiens (Human)) (UniProt P07711)
[12] = target: T4, Caspase-7 (Homo sapiens (Human)) (UniProt P55210)
T4 sequence: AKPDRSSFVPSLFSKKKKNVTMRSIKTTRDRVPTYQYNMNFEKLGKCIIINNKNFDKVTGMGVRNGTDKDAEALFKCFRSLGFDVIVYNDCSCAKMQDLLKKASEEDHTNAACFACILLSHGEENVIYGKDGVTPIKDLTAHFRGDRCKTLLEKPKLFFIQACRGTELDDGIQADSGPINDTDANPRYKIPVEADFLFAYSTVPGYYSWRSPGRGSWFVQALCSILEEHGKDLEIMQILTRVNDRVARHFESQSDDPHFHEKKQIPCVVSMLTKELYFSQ

[13] = target: serine protease NS3 (a.a. 3-181) from Hepatitis C virus genotype 1b (mutant R155Q) (Hepatitis C virus genotype 1b)
[14] = target: Cathepsin S (Homo sapiens (Human)) (UniProt P25774)
[15] = target: PDE3A (h) (human) (UniProt Q14432)
[16] = target: T5, COX2(h) (human) (UniProt P35354)
T5 sequence: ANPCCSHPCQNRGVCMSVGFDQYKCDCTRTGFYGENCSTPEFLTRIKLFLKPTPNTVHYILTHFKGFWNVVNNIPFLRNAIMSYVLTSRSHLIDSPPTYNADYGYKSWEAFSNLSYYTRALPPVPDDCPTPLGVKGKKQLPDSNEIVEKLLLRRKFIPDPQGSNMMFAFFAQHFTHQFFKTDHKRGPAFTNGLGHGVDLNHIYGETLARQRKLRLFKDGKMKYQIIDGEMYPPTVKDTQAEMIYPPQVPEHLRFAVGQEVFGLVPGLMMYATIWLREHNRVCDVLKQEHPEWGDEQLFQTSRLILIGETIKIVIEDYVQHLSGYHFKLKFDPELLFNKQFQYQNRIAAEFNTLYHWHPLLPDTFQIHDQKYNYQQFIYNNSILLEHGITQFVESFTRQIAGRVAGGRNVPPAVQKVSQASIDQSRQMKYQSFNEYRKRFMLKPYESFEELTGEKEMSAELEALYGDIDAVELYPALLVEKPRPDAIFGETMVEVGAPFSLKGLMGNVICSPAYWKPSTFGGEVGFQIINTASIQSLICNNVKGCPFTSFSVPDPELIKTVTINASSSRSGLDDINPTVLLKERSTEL

[17] = target: Lck kinase (h) (human) (UniProt P06239)
[18] = target: Acetylcholinesterase (h) (human) (UniProt P22303)
Sequence of Acetylcholinesterase (h) (human) (P22303 32-614 limits assumed): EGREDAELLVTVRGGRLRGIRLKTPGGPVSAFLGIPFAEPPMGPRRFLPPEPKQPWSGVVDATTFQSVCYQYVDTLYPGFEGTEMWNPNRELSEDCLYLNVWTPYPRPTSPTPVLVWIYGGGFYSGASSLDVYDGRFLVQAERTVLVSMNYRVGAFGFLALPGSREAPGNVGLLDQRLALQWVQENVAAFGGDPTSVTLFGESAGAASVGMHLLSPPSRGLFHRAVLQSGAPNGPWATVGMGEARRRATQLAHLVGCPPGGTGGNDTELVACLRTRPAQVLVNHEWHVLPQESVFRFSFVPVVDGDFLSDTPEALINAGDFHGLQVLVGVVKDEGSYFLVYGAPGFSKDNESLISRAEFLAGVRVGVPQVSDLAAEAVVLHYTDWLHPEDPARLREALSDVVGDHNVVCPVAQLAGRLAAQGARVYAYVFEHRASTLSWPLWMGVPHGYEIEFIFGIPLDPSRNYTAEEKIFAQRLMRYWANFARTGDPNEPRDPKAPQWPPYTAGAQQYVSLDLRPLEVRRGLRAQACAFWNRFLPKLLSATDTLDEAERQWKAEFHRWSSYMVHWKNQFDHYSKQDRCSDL

[19] = target: COX1(h) (human) (UniProt P23219)
Sequence of COX1(h) (human) (P23219 24-599 limits assumed): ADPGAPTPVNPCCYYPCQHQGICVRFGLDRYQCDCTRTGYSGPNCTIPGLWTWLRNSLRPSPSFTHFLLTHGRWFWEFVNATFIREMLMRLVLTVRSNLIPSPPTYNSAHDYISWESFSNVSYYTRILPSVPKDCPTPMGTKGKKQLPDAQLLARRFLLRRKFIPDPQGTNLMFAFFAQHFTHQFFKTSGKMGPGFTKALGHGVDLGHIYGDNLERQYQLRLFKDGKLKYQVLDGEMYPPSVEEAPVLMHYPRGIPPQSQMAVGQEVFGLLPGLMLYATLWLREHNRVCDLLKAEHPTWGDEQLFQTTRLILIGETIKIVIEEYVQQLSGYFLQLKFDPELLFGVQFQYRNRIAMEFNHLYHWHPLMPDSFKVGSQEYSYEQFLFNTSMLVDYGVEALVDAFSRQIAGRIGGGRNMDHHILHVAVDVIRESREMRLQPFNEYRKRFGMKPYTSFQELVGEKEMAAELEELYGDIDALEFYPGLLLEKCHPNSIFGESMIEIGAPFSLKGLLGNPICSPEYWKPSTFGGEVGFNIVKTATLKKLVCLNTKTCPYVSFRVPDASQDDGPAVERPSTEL

[20] = target: PDE4D2 (h) (human) (UniProt Q08499)
Sequence of PDE4D2 (h) (human) (Q08499 303-809): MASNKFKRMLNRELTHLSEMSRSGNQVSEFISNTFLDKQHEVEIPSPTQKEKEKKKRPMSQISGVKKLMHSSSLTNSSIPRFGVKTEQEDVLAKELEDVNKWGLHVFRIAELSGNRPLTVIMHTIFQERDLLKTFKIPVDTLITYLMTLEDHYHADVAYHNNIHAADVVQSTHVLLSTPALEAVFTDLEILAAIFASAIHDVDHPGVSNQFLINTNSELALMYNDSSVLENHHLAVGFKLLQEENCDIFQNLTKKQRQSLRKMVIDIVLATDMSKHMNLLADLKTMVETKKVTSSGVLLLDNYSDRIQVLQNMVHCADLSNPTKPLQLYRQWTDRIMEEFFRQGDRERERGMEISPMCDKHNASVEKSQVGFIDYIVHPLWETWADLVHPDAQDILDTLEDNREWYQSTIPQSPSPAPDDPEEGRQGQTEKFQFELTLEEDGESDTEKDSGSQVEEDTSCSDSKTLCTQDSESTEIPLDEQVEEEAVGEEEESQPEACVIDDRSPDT

Row | Substance | Percentage inhibition (%) (% inhibition at 10 µM) [1] | Percentage inhibition (%) (% inhibition at 10 µM) [2] | Percentage inhibition (%) (% inhibition at 1 µM) [3] | Percentage inhibition (%) (% inhibition at 10 µM) [4] | Percentage inhibition (%) (% inhibition at 10 µM) [5] | Percentage inhibition (%) (% inhibition at 10 µM) [6] | Percentage inhibition (%) (% inhibition at 10 µM) [7] | Percentage inhibition (%) (% inhibition at 10 µM) [8] | Percentage inhibition (%) (% inhibition at 10 µM) [9] | Percentage inhibition (%) (% inhibition at 10 µM) [10] | Percentage inhibition (%) (% inhibition at 10 µM) [11] | Percentage inhibition (%) (% inhibition at 10 µM) [12] | Percentage inhibition (%) (% inhibition at 10 µM) [13] | Percentage inhibition (%) (% inhibition at 10 µM) [14] | % inhibition of control enzyme activity [15] | % inhibition of control enzyme activity [16] | % inhibition of control enzyme activity [17] | % inhibition of control enzyme activity [18] | % inhibition of control enzyme activity [19] | % inhibition of control enzyme activity [20]
1 | Hex-[Cys(tMeBn(DOTA-AET))-Pro-Pro-Thr-Gln-Phe-Cys]-OH (3BP-3554) (peptide) | 2 | -1 | 97 | 1 | -1 | 0 | 0 | -1 | -372 | -3 | -6 | -7 | -5 | -23 | -37 % at 10 µM | -22 % at 10 µM | -4 % at 10 µM | 1 % at 10 µM | 8 % at 10 µM | -4 % at 10 µM
2 | Hex-[Cys(tMeBn(DOTA-PP))-Pro-Pro-Thr-Gln-Phe-Cys]-Asp-NH2 (3BP-3407) (peptide) | 2 | 3 | 98 | 5 | 7 | 5 | -4 | 10 | -68 | 0 | 6 | -3 | 2 | 18 | -3 % at 10 µM | -14 % at 10 µM | 10 % at 10 µM | -6 % at 10 µM | 10 % at 10 µM | -5 % at 10 µM
